Reference: patent publication US20040192898A1 (published 2004)

Target: T1, Amyloid-beta 1-42 (UniProt P05067 672-713)
T1 construct: domain: Amyloid-beta 1-42; Bought peptide; 1-42 counts on the Aβ peptide, not on APP; also called Aβ1-42
Experiment: SPR, BIAcore 2000; antibody captured, Aβ flowed over
Procedure: Antibody affinity (KD=Kd/Ka) was determined using a BlAcore biosensor 2000 and data analyzed with BlAevaluation (v. 3.1) software. A capture antibody (rabbit anti-mouse) was coupled via free amine groups to carboxyl groups on flow cell 2 of a biosensor chip (CM5) using N-ethyl-N-dimethylaminopropyl carbodiimide and N-hydroxysuccinimide (EDC/NHS). A non-specific rabbit IgG was coupled to flow cell 1 as a background control. Monoclonal antibodies were captured to yield 300 resonance units (RU). […] To regenerate the chip, bound anti-Aβ antibody was eluted from the chip using a wash with glycine-HCI (pH 2). A control injection containing no amyloid-beta served as a control for baseline subtraction.

T1 sequence (P05067 672-713 limits assumed): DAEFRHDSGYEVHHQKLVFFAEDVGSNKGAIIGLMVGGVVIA

B1: Humanized 266 antibody (antibody, human IgG1, kappa, V domains shown)
VH: EVQLVESGGGLVQPGGSLRLSCAASGFTFSRYSMSWVRQAPGKGLELVAQINSVGNSTYYPDTVKGRFTISRDNAKNTLYLQMNSLRAEDTAVYYCASGDYWGQGTLVTVSS
VL: DVVMTQSPLSLPVTLGQPASISCRSSQSLIYSDGNAYLHWFLQKPGQSPRLLIYKVSNRFSGVPDRFSGSGSGTDFTLKISRVEAEDVGVYYCSQSTHVPWTFGQGTKVEIKR
modifications: N-glycosylated at Asn 56 (fully) and Asn 292
notes: Human IgG1 (pVg1) / kappa, expressed in Sp2/0; also called Hu266
  Kd: 4 pM
